Data on 17 molecules can be found in patent US20230192896A1 (published 2023).

To fix the notation:
T1: FX zymogen (UniProt P00742 41-179; P00742 183-488)
T1 chain 1: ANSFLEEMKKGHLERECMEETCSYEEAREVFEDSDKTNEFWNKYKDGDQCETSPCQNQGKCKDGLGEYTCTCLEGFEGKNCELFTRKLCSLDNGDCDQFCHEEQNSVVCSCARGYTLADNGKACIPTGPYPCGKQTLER
T1 chain 2: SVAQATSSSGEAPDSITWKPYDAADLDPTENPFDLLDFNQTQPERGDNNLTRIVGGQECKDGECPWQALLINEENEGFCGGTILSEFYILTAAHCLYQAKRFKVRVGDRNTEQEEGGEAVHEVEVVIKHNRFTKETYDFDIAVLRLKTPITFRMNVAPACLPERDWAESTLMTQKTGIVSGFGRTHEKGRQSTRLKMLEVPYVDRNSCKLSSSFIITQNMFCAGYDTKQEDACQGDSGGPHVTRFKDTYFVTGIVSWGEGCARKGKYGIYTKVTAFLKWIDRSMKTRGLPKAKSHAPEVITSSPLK

B1: BIIB-12-1321 (antibody, V domains shown)
VH: QVQLVQSGAEVKKPGSSVKVSCKASGGTFSSYAISWVRQAPGQGLEWMGGIIPIFGTANYAQKFQGRVTITADESTSTAYMELSSLRSEDTAVYYCARTPDTSSATDWGQGTLVTVSS
VL: EIVMTQSPATLSLSPGERATLSCRASQSVSSYLAWYQQKPGQAPRLLIYDSSNRATGIPARFSGSGSGTDFTLTISSLEPEDFAVYYCQQFTNLPYTFGGGTKVEIK
B2: BIIB-12-1329 (antibody, V domains shown)
VH: QVQLVESGGGVVQPGRSLRLSCAASGFTFSSYGMHWVRQAPGKGLEWVAVISYDGSNKYYADSVKGRFTISRDNSKNTLYLQMNSLRAEDTAVYYCARGGAGSRYFQHWGQGTLVTVSS
VL: EIVMTQSPATKSVSPGERATLSCRASQSVSSNLAWYQQKPGQAPRLLIYSASTRATGIPARFSGSGSGTEFTLTISSLQSEDFAVYYCQQVFNWPPTFGGGTKVKIK
B3: BIIB-12-1302 (antibody, V domains shown)
VH: QVQLVQSGAEVKKPGASVKVSCKASGYTFTNYGISWVRQAPGQGLEWMGWISAYNGNTNYAQKLQGRVTMTTDTSTSTAYMELRSLRSDDTAVYYCARARSDWRAFDIWGQGTMVTVSS
VL: EIVMTQSPATLSVSPGERATLSCRASQSVSSNLAWYQQKPGQAPRLLIYGASTRATGIPARFSGSGSGTEFTLTISSLQSEDFAVYYCQQVNNLPLTFGGGTKVEIK
B4: BIIB-12-931 (antibody, V domains shown)
VH: QVQLVQSGAEVKKPGASVKVSCKASGYTFTSYYMSWVRQAPGQGLEWMGIINPSGGSTSYAQKFQGRVTMTRDTSTSTVYMELSSLRSEDTAVYYCARDPVQEYGPYYYYMDVWGKGTTVTVSS
VL: EIVMTQSPATLSVSPGERATLSCRASQSVSSNLAWYQQKPGQAPRLLIYGASTRATGIPARFSGSGSGTEFTLTISSLQSEDFAVYYCQQAAYWPWTFGGGTKVEIK
B5: BIIB-12-924 (antibody, V domains shown)
VH: QVQLVESGGGVVQPGRSLRLSCAASGFTFSSYGMHWVRQAPGKGLEWVAVISYDGSNKYYADSVKGRFTISRDNSKNTLYLQMNSLRAEDTAVYYCAKGKSSERGLNPWGQGTLVTVSS
VL: DIQMTQSPSSVSASVGDRVTITCRASQGISSWLAWYQQKPGKAPKLLIYAASSLQSGVPSRFSGSGSGTDFTLTISSLQPEDFATYYCQQGNSFPLTFGGGTKVEIK
B6: BIIB-12-894 (antibody, V domains shown)
VH: QLQLQESGPGLVKPSETLSLTCTVSGGSISSSSYYWGWIRQPPGKGLEWIGSIYYSGSTYYNPSLKSRVTISVDTSKNQFSLKLSSVTAADTAVYYCAREGAHSSMAGLDVWGQGTMVTVSS
VL: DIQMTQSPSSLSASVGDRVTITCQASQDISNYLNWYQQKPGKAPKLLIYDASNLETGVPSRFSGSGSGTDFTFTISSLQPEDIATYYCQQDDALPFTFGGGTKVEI
B7: BIIB-12-923 (antibody, V domains shown)
VH: QVQLVQSGAEVKKPGASVKVSCKASGYTFTSYYMHWVRQAPGQGLEWMGIINPSGGSTSYAQKFQGRVTMTRDTSTSTVYMELSSLRSEDTAVYYCARGAGYLQRAFDIWGQGTMVTVSS
VL: DIQMTQSPSTLSASVGDRVTITCRASQSISSWLAWYQQKPGKAPKLLIYKASSLESGVPSRFSGSGSGTEFTLTISSLQPDDFATYYCQQFKSLSFTFGGGTKVEIK
B8: BIIB-12-932 (antibody, V domains shown)
VH: QVQLVESGGGVVQPGRSLRLSCAASGFTFSSYGMHWVRQAPGKGLEWVAVISYDGSNKYYADSVKGRFTISRDNSKNTLYLQMNSLRAEDTAVYYCARLGYRGASAFDIWGQGTMVTVSS
VL: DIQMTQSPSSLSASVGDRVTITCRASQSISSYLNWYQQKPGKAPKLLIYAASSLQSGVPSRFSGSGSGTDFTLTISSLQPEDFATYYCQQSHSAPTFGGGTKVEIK
B9: BIIB-12-1316 (antibody, V domains shown)
VH: QVQLVESGGGVVQPGRSLRLSCAASGFTFSSYGMHWVRQAPGKGLEWVAVISYDGSNKYYADSVKGRFTISRDNSKNTLYLQMNSLRAEDTAVYYCAKSGQYRAFDIWGQGTMVTVSS
VL: DIQMTQSPSSVSASVGDRVTITCRASQGISSWLAWYQQKPGKAPKLLIYAASSLQSGVPSRFSGSGSGTDFTLTISSLQPEDFATYYCQQINNFPPTFGGGTKVEIK
B10: BIIB-12-1314 (antibody, V domains shown)
VH: QVQLVESGGGVVQPGRSLRLSCAASGFTFSSYGMHWVRQAPGKGLEWVAVISYDGSNKYYADSVKGRFTISRDNSKNTLYLQMNSLRAEDTAVYYCAKGTRWAGNWGQGTLVTVSS
VL: DIQMTQSPSSVSASVGDRVTITCRASQGISSWLAWYQQKPGKAPKLLIYAASSLQSGVPSRFSGSGSGTDFTLTISSLQPEDFATYYCQQANFFPITFGGGTKVEIK
B11: BIIB-12-908 (antibody, V domains shown)
VH: QVQLVESGGGVVQPGRSLRLSCAASGFTFSSYGMHWVRQAPGKGLEWVAVISYDGSNKYYADSVKGRFTISRDNSKNTLYLQMNSLRAEDTAVYYCAKGPRGMDVWGQGTTVTVSS
VL: DIQLTQSPSSVSASVGDRVTITCRASQGISSWLAWYQQKPGKAPKLLIYGASSLQSGVPSRFSGSGSGTDFTLTISSLQPEDFATYYCQQGSSLPITFGGGTKVEIK
B12: BIIB-12-919 (antibody, V domains shown)
VH: QVQLVQSGAEVKKPGASVKVSCKASGYTFTSYYMHWVRQAPGQGLEWMGVINPSGGSTSYAQKFQGRVTMTRDTSTSTVYMELSSLRSEDTAVYYCARGANIAVGRRYADYWGQGTLVTVSS
VL: DIQMTQSPSTLSASVGDRVTITCRASQSISSWLAWYQQKPGKAPKLLIYKASSLESGVPSRFSGSGSGTEFTLTISSLQPDDFATYYCQQVSSYPTFGGGTKVEIK
B13: BIIB-12-1326 (antibody, V domains shown)
VH: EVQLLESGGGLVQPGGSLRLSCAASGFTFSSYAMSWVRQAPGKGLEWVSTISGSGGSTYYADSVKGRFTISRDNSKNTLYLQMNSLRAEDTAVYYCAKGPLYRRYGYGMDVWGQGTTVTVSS
VL: EIVLTQSPGTLSLSPGERATLSCRASQSVRSSYLAWYQQKPGQAPRLLIYGASSRATGIPDRFSGSGSGTDFTLTISRLEPEDFAVYYCQQAYSSPLTFGGGTKVEIK
B14: BIIB-12-897 (antibody, V domains shown)
VH: QLQLQESGPGLVKPSETLSLTCTVSGGSISSSSYYWGWIRQPPGKGLEWIGSIYYSGSTYYNPSLKSRVTISVDTSKNQFSLKLSSVTAADTAVYYCAREGRTYYGGWFDPWGQGTLVTVSS
VL: EIVLTQSPGTLSLSPGERATLSCRASQSVSSSYLAWYQQKPGQAPRLLIYGASSRATGIPDRFSGSGSGTDFTLTISRLEPEDFAVYYCQQDGNYPYTFGGGTKVEIK
B15: BIIB-12-937 (antibody, V domains shown)
VH: QVQLVQSGAEVKKPGASVKVSCKASGYTFTSYYMHWVRQAPGQGLEWMGIINPSGGSTSYAQKFQGRVTMTRDTSTSTVYMELSSLRSEDTAVYYCARPTRMLRSYGMDVWGQGTTVTVSS
VL: not shown
B16: BIIB-12-906 (antibody, V domains shown)
VH: QVQLVESGGGVVQPGRSLRLSCAASGFTFSSYGMHWVRQAPGKGLEWVAVISYDGSNKYYADSVKGRFTISRDNSKNTLYLQMNSLRAEDTAVYYCAKSSRHFDYWGRGTLVTVSS
VL: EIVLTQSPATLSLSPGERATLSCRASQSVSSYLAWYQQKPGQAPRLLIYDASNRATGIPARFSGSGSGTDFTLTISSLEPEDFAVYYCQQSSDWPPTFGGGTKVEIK
B17: BIIB-12-907 (antibody, V domains shown)
VH: QVQLQESGPGLVKPSETLSLTCAVSGYSISSGYYWAWIRQPPGKGLEWIGSIYHSGSTYYNPSLKSRVTISVDTSKNQFSLKLSSVTAADTAVYYCARESGMSGAAYWGQGTLVTVSS
VL: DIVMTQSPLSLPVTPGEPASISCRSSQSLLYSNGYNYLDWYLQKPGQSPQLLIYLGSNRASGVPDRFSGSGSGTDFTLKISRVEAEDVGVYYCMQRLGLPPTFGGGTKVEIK

For the assay, the target named is T1, FX zymogen. In words: BLI. Background: Biolayer interferometry detects binding as a change in optical thickness at a sensor tip.
Usually Kd stands for the constant that tells how readily two partners part at equilibrium. Higher therefore signals weaker binding. For B1, binding was put at a Kd of 10.6 nM.

As for B2, the affinity, expressed as Kd, was 48.5 nM.

In the case of B3, the Kd was found to be 64.1 nM.

Molecule B4 came in with a Kd of 13.5 nM.

Turning to B5, the Kd is 22.3 nM.

In turn, B6 registered a Kd of 38 nM.

Molecule B7 had a Kd of 33.8 nM.

Molecule B8 had a Kd of 29.3 nM.

The molecule B9 had a Kd of 45 nM.

As for B10, binding was characterised by a dissociation constant (Kd) of 10.4 nM.

In the case of B11, the Kd stood at 34 nM.

B12 showed a Kd of 23.1 nM. This Kd and that of the molecule before are within 1.5-fold of each other.

Regarding B13, binding was put at a Kd of 24.1 nM. This Kd and that of the molecule before are within 1.5-fold of each other.

For the molecule B14, the affinity, expressed as Kd, was 68 nM.

B15 registered a Kd of 23.7 nM. This Kd lies about 2.9-fold lower than the previous one.

In turn, B16 registered a Kd of 39.6 nM.

For B17, the Kd was 52 nM. This Kd and that of the molecule before are within 1.5-fold of each other.
